Article PMC7099064
Blank lines part the entries; values can stand above or below the substance they belong to.

Columns and labels:
Pin1 (HA-Pin1, GST-Pin1) [1] = molecular target: Pin1 (HA-Pin1, GST-Pin1) (UniProt Q13526); test: co-IP of HA-Pin1 with Myc-Kv4.2; conditions: reference: wild type; sites T607
Pin1 (HA-Pin1, GST-Pin1) [2] = molecular target: Pin1 (HA-Pin1, GST-Pin1) (UniProt Q13526); test: Affi-Gel peptide pulldown from lysate

- binding against the reference (Pin1 (HA-Pin1, GST-Pin1) [1]): weaker
Substance: Kv4.2 (Myc-Kv4.2; synthetic C-terminal peptides) (from UniProt Q9NZV8) T607A

- binding against the reference (Pin1 (HA-Pin1, GST-Pin1) [2]; reference: non-phospho peptide, sites T602): stronger
Substance: Kv4.2 (Myc-Kv4.2; synthetic C-terminal peptides) (from UniProt Q9NZV8) pT602 peptide

- binding against the reference (Pin1 (HA-Pin1, GST-Pin1) [2]; reference: non-phospho peptide, sites T602,T607): stronger
- binding against the reference (Pin1 (HA-Pin1, GST-Pin1) [2]; reference: pT607 peptide, sites T602): stronger
Substance: Kv4.2 (Myc-Kv4.2; synthetic C-terminal peptides) (from UniProt Q9NZV8) pT602, pT607 peptide

- binding against the reference (Pin1 (HA-Pin1, GST-Pin1) [2]; reference: non-phospho peptide, sites T607): stronger
Substance: Kv4.2 (Myc-Kv4.2; synthetic C-terminal peptides) (from UniProt Q9NZV8) pT607 peptide
